Experimental data published in PMC9207296, “Photoacoustic imaging reveals mechanisms of rapid-acting insulin formulations dynamics at the injection site” (Molecular Metabolism, 2022).

Columns and labels:
[1] = Photobleaching test of dye-labeled lispro in expired mouse ear (OR-PAM); assay type: physicochemical; conditions: 400 μM in Humalog formulation in expired mouse ear; 21 imaging sessions over 3 hours; 780 nm
Procedure: Before performing live animal experiments, we injected the dye-labeled lispro formulation in the ear of an expired mouse to study the progression of photoacoustic signals to assess photobleaching.
[picture] Figure S1: Photobleaching test of Cy7.5 dye-labeled lispro (400 μM) in Humalog formulation injected in a dead mouse ear. Over the course of 3 hours, 21 imaging sessions were performed and no decrease of photoacoustic signals were found. Scale bar = 500 μm.

[2] = OR-PAM quantification and compartmental kinetic modelling of injection-site absorption in mouse ear; assay type: in vivo; conditions: sulfo-cy7.5 dye without lispro, n = 3, result in words
Procedure: We used 34 gauge needles (207434, Hamilton) with microliter syringes to inject insulin volumes from 0.06 μL to 0.10 μL in the mouse ear. To perform the injection, the syringes were fitted onto a syringe dispenser (PB600, Hamilton), which enabled rapid and controlled injection. The needle was inserted in the mouse ear at an oblique angle (≤45°) and then the desired volume of the dye-labeled insulin lispro formulation was injected using the syringe dispenser. To perform 0.06 μL injections, a 1 μL syringe (80100, Hamilton) was used through which a minimum of 0.02 μL of liquid could be dispensed. To inject 0.1 μL volume, a 5 μL (7634-01, Hamilton) syringe was used. To perform 0.06 μL injection, the 1 μL syringe was fitted with a glass coupler (55752-01, Hamilton) and a luer adaptor (55753-01, Hamilton) to connect to the 34-gauge needle. The 5 μL syringe could be directly connected to the needle.
Mouse experiments were approved as per the IACUC regulations at Caltech. Hsd:Athymic Nude-Fox1^nu mice aged 6–10 weeks (Envigo) were used in all the photoacoustic experiments. The mouse body temperature was maintained at 37 °C during imaging. […]
Since the time required for taking each image is around 220 s, we consider the mid-point of time at which the imaging was started and ended as the imaging time-point. […] All the p values were calculated using unpaired two-sample t-tests. […]

Substance | photostability (photoacoustic signal) [1] | injection-site absorption of dye alone, Lyumjev versus Humalog excipient formulation [2]
sulfo-cy7.5 insulin lispro: insulin lispro acylated at the B-chain lysine B28 epsilon amino group with sulfo-cyanine7.5 NHS ester | no decrease in photoacoustic signals after 21 imaging sessions | –
sulfo-cyanine7.5 [sulfo-cy7.5 dye] | – | absorbed at a faster rate in the Lyumjev formulation
